Target: T1, Pa CapW (Pseudomonas aeruginosa PA17, UniProt P0DX74 1-299)
T1 sequence: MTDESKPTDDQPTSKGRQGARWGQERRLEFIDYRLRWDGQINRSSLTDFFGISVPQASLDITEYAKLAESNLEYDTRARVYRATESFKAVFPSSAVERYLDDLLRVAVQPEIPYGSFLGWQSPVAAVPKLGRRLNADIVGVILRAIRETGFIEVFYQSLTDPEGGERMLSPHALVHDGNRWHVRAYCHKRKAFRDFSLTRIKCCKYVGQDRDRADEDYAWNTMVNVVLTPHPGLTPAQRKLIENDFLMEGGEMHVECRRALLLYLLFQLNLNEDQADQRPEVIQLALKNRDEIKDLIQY
Assay: fluorescence polarization; 5 mM MgCl2; FP: 25 mM Tris pH 8.5, 50 mM NaCl, 5% glycerol, 5 mM MgCl2, 1 mM DTT, 0.01% NP-40 substitute, 50 nM DNA, 10 min, RT; EMSA: 50 mM Tris-HCl pH 8.5, 50 mM NaCl, 5
Conditions: protein: recombinant; tags: N-terminal His6-TEV, cleaved; chain copies: 2; label: 5'-6-FAM on one strand; blunt

B1: Probe #4 (dsDNA)
DNA 1: CTAAAAACTATGCGTATAGTAATAATACGC
DNA 2: GCGTATTATTACTATACGCATAGTTTTTAG
With B1 as the binder, how does the Kd read?
The Kd was 1 ± 0.1 µM.
